Experiment: yeast display, Sf9 membrane polyspecificity reagent, FACS + sequencing; frameworks hold sequencing errors
How it was run: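 Nanobodies came from a synthetic yeast display library in Saccharomyces cerevisiae BJ5465, induced with galactose for 36–48 hours and stained for 1 hour at 4 °C with 10% biotinylated, detergent-solubilized Sf9 membrane reagent. Cells were enriched on streptavidin microbeads and then FACS-sorted, with low and high (top ~1%) gates set on anti-HA fluorescence for expression and streptavidin fluorescence for reagent binding. Each polyreactivity label reflects the gate a clone came from. Genes were amplified by colony PCR, sequenced by MiSeq 2 × 250 and filtered by CDR length.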
For “QVQLVESGGGLVQAGGSLRLSCAASGSTFLNYAMGWYRQAPGKERELVAAITGSGGRTYYADSVKGRFTISRDNAKNTVYLQMNSLKPEDTAVYYCAASATYDPHDYWGQGTQVTVSS”, the “polyreactivity (PSR sort gate)” value was “high polyreactivity”.
In the case of “QVQLVESGGGLVQAGGSLRLSCAASGSTFLPNDMGWYRQAPGKERELVAAISWSDGSTYYADSVKGRFTISRDNAKNTVYLQMNSLKPEDTAVYYCNTVGFDYYYYEYDYWGQGTQVTVSS”, the “polyreactivity (PSR sort gate)” value is reported as “low polyreactivity”.
With “QVQLVESGGGLVQAGGSLRLSCAASGSTFLPYAMGWYRQAPGKERELVAAIRWSVGSTYYADSVKGRFTISRDNAKNTVYLQMNSLKPEDTAVYYCAVTYGRGYEYWGQGTQVTVSS” the “polyreactivity (PSR sort gate)” value was “high polyreactivity”.
With “QVQLVESGGGLVQAGGSLRLSCAASGSTFLRNAMGWYRQAPGKERQLVAAISRRGGSTYYADSVKGRFTISRDNAKNTVYLQMNSLKPEDTSVYYCAKDYRSPISGDYWGQGTQVTVSS” the “polyreactivity (PSR sort gate)” value was “high polyreactivity”.
With “QVQLVESGGGLVQAGGSLRLSCAASGSTFLRYAMGWYREAPGTERELVAAISVSGGSTYYADSVKGRFTISRDNAKNTVYLQMNSLKPEYTAVYYCIAVTKFHRRYNYWGQGTQVTVSS” the “polyreactivity (PSR sort gate)” value was “high polyreactivity”.
With “QVQLVESGGGLVQAGGSLRLSCAASGSTFLRYAMGWYRQAPGKERELVAAISSGTSTNYADSVKGRFTISRDNAKNTVYLQMNSLKPEDTAVYYCAAVYAWLFWYDSWGQGTQVTVSS” the “polyreactivity (PSR sort gate)” value was “low polyreactivity”.
With “QVQLVESGGGLVQAGGSLRLSCAASGSTFLRYAMGWYRQAPGKERELVATISRSDDGTYYADSVKGRFTISRDNAKNTVYLQMNSLKPEDTAVYYCAARSWYLYYYWGQGTQVTVSS” the “polyreactivity (PSR sort gate)” value was “low polyreactivity”.
With “QVQLVESGGGLVQAGGSLRLSCAASGSTFLRYAMGWYRQAPGKERELVATITSGGSTYADSVKGRFTISRDNAKNTVYLQMNSLKPEDTAVYYCAARANTKKPYYYWGQGTQVTVSS” the “polyreactivity (PSR sort gate)” value was “high polyreactivity”.
For “QVQLVESGGGLVQAGGSLRLSCAASGSTFLRYDMGWYRQAPGKDRELVAAINWSGGGTSYADSVKGRFTISRDNAKNTVYLQMNSLKPEDTEVYYCAAYFRYSYYWSEYWGQGTQVTVSS”, the “polyreactivity (PSR sort gate)” value was “high polyreactivity”.
With “QVQLVESGGGLVQAGGSLRLSCAASGSTFLRYTMGWYRQAPGTERELVAAISPSAGSTYYADSVKGRFTISRDNAKNSVYLQMNSLTPEDTAVYYCAAKRGSVSRPDYGANDESWGQGTQVTVSS” the “polyreactivity (PSR sort gate)” value was “high polyreactivity”.
With “QVQLVESGGGLVQAGGSLRLSCAASGSTFLSNAMGWYRPAPGKERELVAGIDYNDGSTYYADSVKGRFTISRDNAKNTVYLQMNSLKPEDTAVYYCAARWVFRRYVIGMDYWGQGTQVTVSS” the “polyreactivity (PSR sort gate)” value was “low polyreactivity”.
For “QVQLVESGGGLVQAGGSLRLSCAASGSTFLSYAMGWYIQAPGKEREFVAAIPSIVGSTYYADSVKGRFTISRDNAKNTVYLQMNSLKPEDTAVYYCATDSYPGLNPDFDYWGQGTQVTVSS”, the “polyreactivity (PSR sort gate)” value was “low polyreactivity”.
For “QVQLVESGGGLVQAGGSLRLSCAASGSTFLSYAMGWYRQAPGKERELVARITSSGGNTYYADSVKGRFTISRDNAKNTVYLQMNSLKPEDTAVYYCAVSLEDQQYIFDYWGQGTQVTVSS”, the “polyreactivity (PSR sort gate)” value was “low polyreactivity”.
For “QVQLVESGGGLVQAGGSLRLSCAASGSTFLTNVMGWYRQAPGKEREFVAAITANGGRTYYADSVKGRFTISRDNAKKTVYLKMNSQKPEDTAVYYAVETAWSYNSIYWFDYWGQGTQVTVSS”, the “polyreactivity (PSR sort gate)” value was “high polyreactivity”.
With “QVQLVESGGGLVQAGGSLRLSCAASGSTFLTYAMGWYRQAPGKERELVASITSTGRTYADSVKGRFTISRDNAKNTVYLQMNSLKPEDTAVYYCNADVTAFRRSFLRKYYSYDSWGQGTQVTVSS” the “polyreactivity (PSR sort gate)” value was “low polyreactivity”.
With “QVQLVESGGGLVQAGGSLRLSCAASGSTFLVNAKGWYRQAPGKEWEFVAAITGNAGSTYYADSVKGRFTISRDNEKYTVYLQMNSLKPEDTAVYYCAAALPGYDGDYWGQGTQVTVSS” the “polyreactivity (PSR sort gate)” value was “low polyreactivity”.
With “QVQLVESGGGLVQAGGSLRLSCAASGSTFLVYALGWYRQAHGKEREFVAAISWSGGSTFYADSVKGRFTISRDNAKNTVYLQMNSLKPEDTAVYYCAARQAGYSGRKLYYWGQGTQVTVSS” the “polyreactivity (PSR sort gate)” value was “low polyreactivity”.
In the case of “QVQLVESGGGLVQAGGSLRLSCAASGSTFLVYARGWYRQAPGKERELVADITSRGGSTYYADSVKGRFTISRDNAKNTVYLQMNSLKPEDTAVYYCAALKRVVLFDYWGQGSQVTVSS”, the “polyreactivity (PSR sort gate)” value is reported as “low polyreactivity”.
For “QVQLVESGGGLVQAGGSLRLSCAASGSTFLYNAMGWYRQAPGKERELVATISSGGGSTNYADSVKGRFTISRDNAKNTVYLQMNSLKPEDTAVYYCAVEGYDSYKDDYWGQGTQVTVSS”, the “polyreactivity (PSR sort gate)” value was “low polyreactivity”.
In the case of “QVQLVESGGGLVQAGGSLRLSCAASGSTFLYNAMRWYRQAPGKEREFVAAISGSGGTTYYADSVKGRFTISRDNAKNTFYLQMNSLKPEDTAVYYCAVSQSWYWYYASDYWGQGTQVTVSS”, the “polyreactivity (PSR sort gate)” value is reported as “low polyreactivity”.
With “QVQLVESGGGLVQAGGSLRLSCAASGSTFLYYAMGWYRQAPGKERELVAAISWSGGSTYYADSVKGRFTISRDNAKNTVYLQMKSLKPEDTAVYYCAASSPWEQSNDQFYYWGQGTQVTVSS” the “polyreactivity (PSR sort gate)” value was “low polyreactivity”.
In the case of “QVQLVESGGGLVQAGGSLRLSCAASGSTFLYYAMGWYRQAPGKERELVATITDGGSTNYADSVKGRFTISRDNAKNTVYLQMNSLKPEDTAVYYCATDSYHYSYGYASLPEYDYWGQGTQVTVSS”, the “polyreactivity (PSR sort gate)” value is reported as “low polyreactivity”.
With “QVQLVESGGGLVQAGGSLRLSCAASGSTFLYYAMGWYRQAPGKERELVAVISWSGVSTYYADSVKGRFTISRDNAKNTVYLQMNSLKPEVTAVYYCNTGNHYIRTYGYWGQGTQVTVSS” the “polyreactivity (PSR sort gate)” value was “low polyreactivity”.
With “QVQLVESGGGLVQAGGSLRLSCAASGSTFNEYVMGWYRHAPGKERELVAAITGGGGRTYYADSVKGRFTISRDNAKNTVYLQMNSLKPEDTAVYYCAKRYLFVTYWGFFRYDYWGQGTQVTVSS” the “polyreactivity (PSR sort gate)” value was “low polyreactivity”.
In the case of “QVQLVESGGGLVQAGGSLRLSCAASGSTFNEYVMGWYRQAPGKERELVAAITGGGGRTYYADSVKGRFTISRDNAKITVYLQMNSQKPEDTAFYDCAKRYLYGTYWGFFRYDYWGQGTQVTVSS”, the “polyreactivity (PSR sort gate)” value is reported as “low polyreactivity”.
With “QVQLVESGGGLVQAGGSLRLSCAASGSTFNFYAMGWYRQAPGKEREFVAAITSSGDSTYYADSVKGRFTISRDHAKTTVYLQMNSLKPEDTAVYYCAARLRWRYSYDYWGQGTQVTVSS” the “polyreactivity (PSR sort gate)” value was “high polyreactivity”.
For “QVQLVESGGGLVQAGGSLRLSCAASGSTFNGNAMGWYRQAPGKERELVARISFDGTSTYYADSVKGRFTISRDNAKNTVYLQMNSLKPEDTAVDYCNVLFPRDHGFPGYGYWGQGTQVTVSS”, the “polyreactivity (PSR sort gate)” value was “low polyreactivity”.
With “QVQLVESGGGLVQAGGSLRLSCAASGSTFNGYAIGWYRQAPGKERELVAAITWSGDSTYYADSVKGRFTISRDNAKNTVYLQMNSLKPEDTAVYYCAADDVKWDYDYWGQGTQVTVSS” the “polyreactivity (PSR sort gate)” value was “low polyreactivity”.
With “QVQLVESGGGLVQAGGSLRLSCAASGSTFNGYAMGWYRQAPGKERELVAAINWTGDSTYYADSVKGRFTISRDNAKNTVYLQMNSLKPEDTAVYYCAAIRRQKGLWDYYYWGQGTQVTVSS” the “polyreactivity (PSR sort gate)” value was “low polyreactivity”.
With “QVQLVESGGGLVQAGGSLRLSCAASGSTFNGYTMGWYRQAPGKERELVAAISKSGGRTYYADSVKGRFTISRDNAKNTVYLQMNSLKPEDTAVYYCAAHFRALGIYYTYDYWGQGTQVTVSS” the “polyreactivity (PSR sort gate)” value was “high polyreactivity”.
With “QVQLVESGGGLVQAGGSLRLSCAASGSTFNGYTMGWYRQAPGKERELVAAITWSGGRTYYADSVKGRFTISRDNAKNTVYLQMNSLKPEDTAVYYCAAKLRSRYDYWGQGTQVTVSS” the “polyreactivity (PSR sort gate)” value was “high polyreactivity”.
With “QVQLVESGGGLVQAGGSLRLSCAASGSTFNGYVMGWYRQAPGKERELVAAISRSGGSTYYADSVKGRFTISRDNAKNTVYLQMNSLKPEDTAVYYCAVQRKSSKRAFRYGYWGQGTQVTVSS” the “polyreactivity (PSR sort gate)” value was “high polyreactivity”.

— the nanobody polyreactivity screen of Harvey et al. (2022)
